From US20020032166A1, “Biocompatible cationic detergents and uses therefor” (University Technology Corporation, priority 1992, published 2002)
Where “and” joins values, the source holds several entries; their conditions need not be identical. Identical values can stand only once. Like-named read-outs stand apart in the source and are kept apart here. Each block holds one molecule with its values, some of them ahead of it.

What was measured:
[1] = Apparent water/1-octanol partition coefficient of SDS hydrophobic ion pair complexes
From the text: The relative solubilities in two phases is given in terms of an apparent partition coefficient. The apparent partition coefficient is defined as the ratio of the equilibrium concentration in an organic phase to that in an aqueous phase. The actual value of the apparent partition coefficient, P, is dependent on the two solvent systems employed. In all cases herein described, the organic phase is 1-octanol and the aqueous phase is water alone or with a minimal amount of HCl added.
(§3) Apparent partition coefficients were measured by dissolving a peptide in 1.25 ml of an aqueous solution. Before SDS addition, the pH was measured on a Beckman pH meter. Upon addition of an SDS solution, the solutions turned cloudy and a precipitate formed immediately. An equal volume of 1-octanol was added and the mixtures agitated, and then left undisturbed for several hours. Prior to analysis, the tubes were spun for 10 minutes at 4000 g. Each layer was removed and the absorbance measured on a Beckman DU-64 UV-visible spectrophotometer using 1 cm quartz cells. All apparent partition coefficients were corrected for changes in pH with differing SDS concentrations.
Results are described as logarithms of the apparent partition coefficient. A log P value of 0 means that the compound is equally soluble in water and the organic phase.

CCRF-CEM cells = test: Cytotoxicity, MTS cell proliferation assay; assay type: cell-based, human; settings: for IC50: Homo sapiens, 2-6 h exposure, 72 h growth, read-out: IC50 (half-maximal growth inhibition)
From the text: (§1) The cytotoxicity of arginine dodecyl ester was investigated in cell culture with two types of cells (see Cory et al., Cancer Commun., 3, 207-212 (1991)): CCRF-CEM cells, a human T-cell leukemia cell line that grows in suspension (obtained from the American Type Culture Collection, ATCC); and a green monkey kidney cell line (COS-7) that grows in monolayers (also obtained from ATCC). For comparison, the cells were also exposed to […] bromide (DTAB) (Sigma).
(§2) Cells were plated into 96-well plates (Corning) in a total of 200 μL Dulbecco's modified minimal essential medium for COS-7 cells, RPMI 1640 for CEM cells, supplemented with penicillin G (50 U/ml), streptomycin sulfate (50 μg/ml), and 10% fetal calf serum, at 10,000 cells/well for COS-7 amd 50,000 cells/well for CEM cells. The plates were incubated at 37° C. for 24 hours after plating. The cells were then exposed to various concentrations of the detergents. Each detergent concentration was used in 8 replicate wells. After 2-6 hours, media/detergent solutions were aspirated, and the wells were washed twice with PBS. For CEM suspension cells, centrifugation of the suspension at 1000×g for 5 min between each wash was required. After washing, 200 μL of fresh medium were added, and the cells were incubated for 72 hours. After 72 hours, cell proliferation was determined using the Promega CellTiter 96 AQueous Non-Radioactive Cell Proliferation Assay.

COS-7 cells [2] = test: Cytotoxicity, MTS cell proliferation assay; assay type: cell-based, green monkey; settings: for IC50: Chlorocebus sabaeus, 2-6 h exposure, 72 h growth, read-out: IC50 (half-maximal growth inhibition)
From the text: as §1, §2
CC-CHOL was tested for cytotoxicity as described in Example 38 using COS-7 and JEG-3 cells. JEG-3 cells are a human choriocarcinoma cell line available from ATCC. The culture medium was Eagle's minimum essential medium containing 10% serum.

[3] = Partitioning of anionic compounds with arginine esters; assay type: physicochemical
Description: Stock solutions of the arginine esters were made by first dissolving the powder in 0.1 N HCl to give a 10 mM solution and then raising the pH to a value between 5 and 6. The pH should not be raised above 8.
Anionic compounds were dissolved in pH 5.5 buffer (10 mM bis-tris propane, 10 mM CaCl2, 10 mM KCl). Appropriate amounts of the stock solution of arginine ester (see above), the anionic compound and buffer were mixed so that the final concentration of the anionic material was 1 mg/mL. An equal volume of organic solvent was added, and the samples were vortexed for 15 seconds on high speed. Layers were separated by centrifugation at 4000 rpm for 5 minutes. Concentrations of the anionic material in the aqueous and organic layers were determined by UV spectroscopy on a Beckman DU-64 series spectrophotometer.

[4] = Surface tension, critical micelle concentration; assay type: physicochemical; settings: in 0.1 N HCl
Description: Surface tension was measured using a Fisher surface tensiometer. Briefly, a platinum iridium ring with a diameter of 6 cm was lowered into the appropriate dilution of detergent in 0.1 N HCl. Surface tension was read at the point where the force on the ring upwards caused the ring to break contact with the liquid surface.

COS-7 cells [5] = test: Transfection of pRSV400luc plasmid, luciferase activity; assay type: cell-based, green monkey; settings: no liposomes or helper lipids
From the text: The plasmid used was pRSV400luc. It was obtained from Dr. David Gordon, Div. Endocrinology, University of Colorado School of Medicine, Denver, Colo. It was propagated in Escherichia coli strain DH5a (ATCC), isolated by a standard alkaline-SDS lysis procedure, and purified twice by isopycnic centrifugation on CsCl gradients (Sambrook et al., Molecular Cloning: A Laboratory Manual (Cold Spring Harbor Laboratory) (1989). COS-7 cells at approximately 50,000 cells per 60 mm diameter plate (Falcon) were used for transfection. Control experiments were done with Lipofectamine (GIBCO/Life Technologies, Gaithersburg, Md.).
In 200 total μL of serum-free medium, plasmid (20 μg) and Lipofectamine or arginine dodecyl ester were mixed and allowed to interact for 45 minutes. The volume was then brought to 1 mL with serum-free medium. Plates with cells were washed with serum-free medium. […]
After allowing cells to grow and express gene product for 36-50 hours, the cells were harvested. […] Intensity of luminescence should be proportional to the amount of expressed luciferase and, therefore, the efficiency of transfection. “Background” is the reading from just the substrate mixture on the luminometer before addition of cell lysate. […] Any reading over 100 units is considered significant.

[6] = Solubility of arginine octyl ester powder; assay type: physicochemical
[7] = Thermal denaturation / melting point followed at 222 nm (CD, absorbance); assay type: physicochemical
Description: Both circular dichroism (CD) signal and light scattering (as measured by changes in absorbance) were measured at 222 nm and the melting point determined by an inflection point in the measured scan.

[8] = SDS-insulin complex
Description: as §3

[9] = aqueous solution; cited from earlier work
[10] = Apparent solubility of HIP complexes in organic solvents

Molecule: NC(=O)CC[C@@H]1NC(=O)[C@H](Cc2ccccc2)NC(=O)[C@H](Cc2ccc(O)cc2)NC(=O)[C@@H](N)CSSC[C@@H](C(=O)N2CCC[C@H]2C(=O)N[C@@H](CCCN=C(N)N)C(=O)NCC(N)=O)NC(=O)[C@H](CC(N)=O)NC1=O [AVP, 8-Arg-vasopressin]
- increase of apparent partition coefficient on SDS addition ([1]; 1-octanol/water, stoichiometric SDS): nearly four orders of magnitude

Molecule: CCCCCCCCCCCCCC[N+](C)(C)C [DTAB, tetradecyltrimethylammonium bromide, reference compound]
- IC50 (CCRF-CEM cells): 20 µM
- IC50 (COS-7 cells [2]): 80 µM

- log p ([3]; octanol/pH 5.5 buffer, pH 5.5, ester C12, detergent:anionic compound 1:1, solvent octanol, read-out: log p): -1.48
- log p ([3]; octanol/pH 5.5 buffer, pH 5.5, ester C12, detergent:anionic compound 3:1, solvent octanol, read-out: log p): 0.022
- log p ([3]; octanol/pH 5.5 buffer, pH 5.5, ester none, solvent octanol, pH 5.5 buffer, read-out: log p): -3.23
Molecule: Nc1ncnc2c1ncn2[C@@H]1O[C@H](COP(=O)(O)OP(=O)(O)OP(=O)(O)O)[C@@H](O)[C@H]1O [adenosine triphosphate]

- critical micelle concentration (cmc) [4]: approximately 0.3 mM and ~0.10 mg/ml
Molecule: CCCCCCCCCCCCOC(=O)[C@@H](N)CCCNC(=N)N [arginine dodecyl ester]
- toxicity relative to DTAB (CCRF-CEM cells): seven-fold less toxicity
- IC50 (CCRF-CEM cells): 150 µM
- toxicity relative to DTAB (COS-7 cells [2]): approximately two-fold less toxicity
- IC50 (COS-7 cells [2]): 175 µM
- transfection of plasmid (COS-7 cells [5]): promoted transection of the plasmid in a concentration and time dependent manner

- critical micelle concentration (cmc) [4]: about 6 mM and ~2.2 mg/ml
- solubility in organics ([6]; alcohols, hydrocarbons, aromatics, DMF, pyridine): insoluble
- solubility in water ([6]; water): insoluble
Molecule: CCCCCCCCOC(=O)[C@@H](N)CCCNC(=N)N [arginine octyl ester]
- solubility in HCl ([6]; HCl): would only dissolve in 0.1 N or stronger HCl

Molecule: Cc1ccc(S(=O)(=O)[O-])cc1.[Na+] [p-toluenesulfonic acid, sodium salt]
- log p ([3]; ester C8 (arginine octyl ester), solvent octanol, pH 5.5 buffer): -0.353
- log p ([3]; ester C8, solvent isooctane, pH 5.5 buffer): -2.2
- log p ([3]; ester C12 (arginine dodecyl ester), solvent octanol, pH 5.5 buffer): -0.336
- log p ([3]; ester none, solvent isooctane, pH 5.5 buffer): -2.7
- log p ([3]; ester none, solvent octanol, pH 5.5 buffer): -1.62

Molecule: Gly-Phe
- partitioning into 1-octanol with SDS ([1]; pH 3): mirrors the marked increase seen for Gly-Phe-NH2
- partitioning into 1-octanol with SDS ([1]; pH 7 / neutral pH): little enhancement of the partition coefficient

- partitioning into 1-octanol with SDS ([1]; pH 7 / neutral pH): readily partitions into 1-octanol
Molecule: Gly-Phe-NH2

Molecule: bovine serum albumin: bovine serum albumin, anionic test protein
- partitioning into octanol layer ([3]; arginine dodecyl ester added, octanol): none would partition into octanol layer

Molecule: hGH: human growth hormone; precipitate with SDS at pH 2
- solubility in 1-octanol (pH 2): not found to be soluble
- aqueous solubility on addition of SDS (pH 7.8): not affected

Molecule: insulin-SDS complex: hydrophobic ion pair complex of insulin with sodium dodecyl sulfate
- structure after prolonged heating ([7]; 1-octanol, 70° C. for more than 1 hour): appears to maintain its native structure
- melting point in 1-octanol ([7]; SDS:insulin molar ratio 6:1, 200 ug/ml): about 116 °C
- melting point in 1-octanol, CD scan at 222 nm ([7]; SDS:insulin molar ratio 9:1 (FIG. 10)): 106 °C
- melting point in 1-octanol, absorbance scan at 222 nm ([7]; SDS:insulin molar ratio 9:1 (FIG. 11)): 106 °C

Molecule: insulin: insulin, a hydrophilic protein; in Table 1 and in 1-octanol present as SDS complex
- Tm in 1-octanol above that observed in water ([7]; 1-octanol vs water): more than 30 degrees
- Log P ([8]; organic solvent 1-Chlorooctane): not detectable
- Log P ([8]; organic solvent 1-octanol): ≧ 1.2
- Log P ([8]; organic solvent CCl4): not detectable
- Log P ([8]; organic solvent CH2Cl2): not detectable
- Log P ([8]; organic solvent Dimethoxyethane): not detectable
- Log P ([8]; organic solvent Ether): not detectable
- Log P ([8]; organic solvent Hexane): not detectable
- Log P ([8]; organic solvent Mineral Oil): not detectable
- Tm of thermal denaturation [9]: about 65 °C
- Apparent Sol. ([10]; SDS-insulin complex in 1-Chlorooctane): insoluble
- Apparent Sol. ([10]; SDS-insulin complex in 1-octanol): ≧ 1.0 mg/ml
- Apparent Sol. ([10]; SDS-insulin complex in CCl4): insoluble
- Apparent Sol. ([10]; SDS-insulin complex in CH2Cl2): insoluble
- Apparent Sol. ([10]; SDS-insulin complex in DMF): ≧ 1.0 mg/ml
- Apparent Sol. ([10]; SDS-insulin complex in Ethanol): ≧ 1.0 mg/ml
- Apparent Sol. ([10]; SDS-insulin complex in Ether): insoluble
- Apparent Sol. ([10]; SDS-insulin complex in Ethyl acetate): insoluble
- Apparent Sol. ([10]; SDS-insulin complex in Hexane): insoluble
- Apparent Sol. ([10]; SDS-insulin complex in Methanol): ≧ 1.0 mg/ml
- Apparent Sol. ([10]; SDS-insulin complex in Mineral Oil): insoluble
- Apparent Sol. ([10]; SDS-insulin complex in NMP): ≧ 1.0 mg/ml
- Apparent Sol. ([10]; SDS-insulin complex in PEG 400): ≧ 0.2 mg/ml
- Apparent Sol. ([10]; SDS-insulin complex in Propylene Glycol): ≧ 0.5 mg/ml
- Apparent Sol. ([10]; SDS-insulin complex in TMP): ≧ 0.2 mg/ml
- Apparent Sol. ([10]; SDS-insulin complex in Trifluoroethanol): ≧ 0.5 mg/ml
- Apparent Sol. ([10]; SDS-insulin complex in Trimethyl phosphate): ≧ 0.15 mg/ml
- Apparent Sol. ([10]; SDS-insulin complex in i-Propanol): ≧ 1.0 mg/ml
